The test system of assay [1] is 293/KDR cells. In words: Soft agar colony formation (anchorage independent growth) of 293/KDR cells. Conditions: for soft agar colony formation by transfectants: 293/KDR cells stably transfected with expression plasmid, FIG. 4F; for inhibition of soft agar colony formation of 293/KDR cells stably transfected with VEGF165 WT: 3S protein at 0.06, 0.15 and 0.6 nM, pazopanib every other day at 0.3 and 3.0 nM over two weeks, FIG. 5C. The format is cell-based. On the procedure: (§1) For proliferation assays, 293/KDR derived cell lines were seeded in 6-well culture plates in quadruplicate. Cell number per well was measured at regular intervals removal of adherent cells and counting in a Cellometer Automatic Cell Counter (Nexcelom Bioscience). Assays for colony formation in soft agar were performed as described (Castagnino et al., 2000).
SoftAgar Colony Formation Assays for colony formation in soft agar (representative of anchorage independent growth) were performed and quantitated as described previously. Briefly, U87 MG cells and U87 MG cells transfected with a plasmid encoding NK1 60/62/73 were suspended in 0.5% Seaplaque agarose (1×10^5 cells) in growth medium in duplicate 60 mm dishes. Cell colonies were visualized after staining with p-iodotetrazolium violet by brightfield microscopy using an Olympus inverted microscope. Digital images were acquired and recorded using a CCD video camera and IP Lab software.

The nature of assay [2]: Heparin-Sepharose mediated clustering (covalent affinity crosslinking). In kind it is binding. The conditions noted are these: conditioned media with Heparin Sepharose, BS3 crosslinking; FIG. 8. On the procedure:
These findings further support the mechanism of action of VEGF 3S as antagonism of HS binding to the VEGF/VEGFR complex leading to instability of ligand/receptor/HS complexes and consequent disruption of downstream signaling.
Covalent Affinity Crosslinking: Assays. […] Heparin Sepharose beads were used as both a source of heparin and to efficiently capture heparin-clustered VEGF from the conditioned media after crosslinking. Samples were then incubated with or without BS3 at room temperature for 1 h. After pelleting the beads by brief centrifugation, samples were obtained from the supernatants for SDS-PAGE and immunoblot analysis. The beads were then washed by five centrifugation/resuspension cycles in PBS, and bound proteins were eluted with boiling SDS-PAGE sample buffer. Supernatant and bead-captured samples were then resolved by SDS-PAGE under reducing conditions, transferred to PVDF and immunodetected with anti-VEGF antibody.

Assay [3] deals with 293/KDR cells. Nature of the assay: KDR-driven tumorigenicity of 293/KDR transfectants implanted subcutaneously in mice. The format is in vivo, SCID/Beige mice. The conditions noted are these: 3×10^6 transfected 293/KDR cells per animal, subcutaneous, FIG. 5D. From the text:
Additional control groups received the empty vector 293/KDR cells (3×10^6 per animal) or the empty vector cells combined with VEGF WT transfectants at 1.5×10^6 cells each. The latter group indicated the growth rate of tumors arising from 1.5×10^6 VEGF WT transfectants in the presence of “neutral” cells providing the same initial mass; a growth rate below this threshold in the group implanted with VEGF WT+VEGF 3S transfectants could be attributed to inhibition of VEGF WT-driven tumor growth by VEGF165 3S.
All experiments involving animals were performed in accordance with NIH Guidelines for Care and Use of Laboratory Animals using approved protocols. 293/KDR cells stably transfected with VEGF WT or 3S expression plasmids, or empty vector, were injected subcutaneously into SCID/Beige mice (Taconic, Inc.; 3×10^6 cells per animal total as indicated in the text, 5 mice/group) and tumor volumes were measured at regular intervals as described previously (Giubellino et al., 2007). Statistical analysis and curve fitting for all animal studies were performed using GraphPad Prism software version 5.0.
To test whether 3S VEGF could antagonize KDR-driven tumorigenicity in mice, groups of animals (n=5) were implanted subcutaneously with WT VEFG transfected 293/KDR cells (3×10^6 per animal), with the same number of 3S VEGF transfected cells, or with a suspension containing half the number of cells of each type. Additional control groups received the empty vector 293/KDR cells (3×10^6 per animal) or the empty vector cells combined with WT VEGF transfectants at 1.5×10^6 cells each. The latter group indicted the growth rate of tumors arising from 1.5×10^6 WT VEGF transfectants in the presence of “neutral” cells providing the same initial mass; a growth rate below this threshold in the group implanted with WT VEGF+3S VEGF transfectants could be attributed to inhibition by 3S VEGF. […]

Assay [4] has as its system 293/KDR cells. In words: Proliferation of stably transfected 293/KDR cell lines in culture. In kind it is cell-based. The conditions noted are these: 293/KDR stable transfectants, days 3-5; p<0.001; FIG. 4E. On the procedure: (§2) For proliferation assays, 293/KDR derived cell lines (5×10^4 cellsper well) were seeded in 6-well culture plates in quadruplicate. Cell number per well was measured after 2, 3, 4, and 5 days of growth by removing cells with trypsin, collecting via centrifugation and counting suspended cells in triplicate in a Cellometer Automatic Cell Counter (Nexcelom Bioscience, Lawrence, Mass.). Purified recombinant VEGF-A protein used as an external standard quantitation as VEGF mass per mass total extracted cell protein. KDR autophosphorylation in cell lysates was measured similarly; cultured cells were serum-deprived for 48 h, where noted cells were stimulated for 20 min with WT or 3S VEGF-A alone or in combination at the indicated concentrations, then extracted with ice cold buffer containing non-ionic detergent, protease and phosphatase inhibitors. Cleared extracts were applied to assay plates and processing per the manufacturer's instructions.
as §1

In another assay the target is T1, NRP1 (Homo sapiens, UniProt O14786).
T1 construct: purchased Sino Biologics
T1 sequence (O14786 22-644 isoform O14786-2 limits assumed): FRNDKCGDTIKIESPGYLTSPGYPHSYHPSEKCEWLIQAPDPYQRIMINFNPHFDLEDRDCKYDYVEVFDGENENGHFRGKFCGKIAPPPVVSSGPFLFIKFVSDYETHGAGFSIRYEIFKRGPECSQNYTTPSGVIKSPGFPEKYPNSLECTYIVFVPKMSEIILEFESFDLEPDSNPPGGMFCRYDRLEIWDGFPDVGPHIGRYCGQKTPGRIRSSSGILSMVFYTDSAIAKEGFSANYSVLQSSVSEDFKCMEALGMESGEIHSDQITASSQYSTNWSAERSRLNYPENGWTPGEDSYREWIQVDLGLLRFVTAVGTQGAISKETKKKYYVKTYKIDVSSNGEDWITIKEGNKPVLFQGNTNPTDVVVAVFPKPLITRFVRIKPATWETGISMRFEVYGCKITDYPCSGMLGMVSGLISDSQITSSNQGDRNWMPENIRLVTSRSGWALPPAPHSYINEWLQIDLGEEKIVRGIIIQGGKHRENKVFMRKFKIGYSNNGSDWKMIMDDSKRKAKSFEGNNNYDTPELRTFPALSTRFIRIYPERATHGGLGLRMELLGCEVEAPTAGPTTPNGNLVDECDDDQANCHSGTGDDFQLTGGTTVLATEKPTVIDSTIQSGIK
In words: Covalent affinity crosslinking analysis of NRP1 binding. Conditions: NRP1-Fc, BS3 crosslinking, conditioned media; FIG. 10A. The procedure: Purified recombinant NRP1-Fc (Sino Biologics) was added as indicated (−NRP1 or +NRP1) to 24 h conditioned media from vector transfected 293/KDR cells(left lanes), 293/KDR/VEGF 3S transfectants (middle lanes), or 293/KDR/VEGF WT transfectants (right lanes) in the absence (−) or presence (+) of the crosslinking reagent BS3 (Thermo Fisher Pierce). Samples were resolved by SDS-PAGE under reducing conditions, transferred to PVDF and immunodetected with anti-Fc antibody (top panel; Thermo Fisher Pierce) or anti-VEGF (lower panels; R&D Systems). A 160 kDa band, consistent with a 1:1 complex of NRP1-Fc and VEGF dimer, was detected by both antibodies specifically in the presence of NRP1-Fc in media from 293/KDR/VEGF 3S transfectants and 293/KDR/VEGF WT transfectants but not the vector control. […] Dimeric VEGF (44 kDa) is captured from both 293/KDR/VEGF 3S media and 293/KDR/VEGF WT media only in the presence of BS3 in the reducing SDS-PAGE conditions used.

For assay [5], the system named is Akt activation in SCC-25 cells, which express VEGFR1, R2 and R3. In words: VEGF-A- or VEGF-D-induced Akt activation in SCC-25 cells. The format is cell-based. Conditions: FIG. 9C. On the procedure: SCC-25 cells express all three VEGFRs.
(§3) Thus the pattern of VEGF 3S inhibition followed the pattern of VEGF-A binding to VEGFR1 and R2, but not homodimers of VEGFR3, as anticipated. […] VEGF 3s blocked Akt activation by VEGF-A (dark circles) or P1GF (squares). […] SCC-25 cells express all three VEGFRs.
(§4) Immunoassays: KDR and VEGF content in cell lysates, tissue extracts and conditioned media was determined using 2-site electrochemiluminescent immunoassays developed for use with the Meso Scale Discovery (MSD) SectorImager 2400 plate reader (Gaithersburg, Md.). KDR activation in cell lysates or tumor tissue extracts included parallel detection with anti-receptor antibodies and specific anti-phospho-receptor antibodies or 4G10 (Millipore). Cell lysates were prepared similarly for analysis of activated (phospho-) Akt, and total Akt using immunoassays from MSD. All measurements were made on triplicate samples. GraphPad Prism software version 5.0 was used for all statistical analyses: protein content values determined by 2-site immunoassay were interpolated from standard curves by nonlinear regression analysis (4 parameter logistic equation); saturation and competitive binding curves were fit after determination of specific binding and assuming a one site binding model.

Assay [6] deals with Akt activation in EA.hy 926 cells, which express VEGFR1 and R2. Nature of the assay: VEGF- or PlGF-induced Akt activation (phospho-Akt/total Akt) in EA.hy 926 cells. The format is cell-based. Conditions: FIG. 9A. The procedure:
VEGF 3s blocked Akt activation by VEGF-A (dark circles) or P1GF (squares).
as §3, §4

Assay [7] addresses T2, KDR (Homo sapiens, UniProt P35968).
T2 construct: host or cells: HEK293 (293/KDR)
Nature of the assay: Basal KDR tyrosyl phosphorylation in stably transfected 293/KDR cells. In kind it is cell-based. The conditions noted are these: 293/KDR stable transfectants after 24 h serum deprivation; FIG. 4D.
Method: KDR autophosphorylation in cell lysates or tumor tissue extracts was measured similarly but included parallel detection with anti-receptor antibodies and specific anti-phospho-receptor antibodies or 4G10 (Millipore). […]
KDR tyrosyl phosphorylation in each cell line was measured after 24 h of serum deprivation (FIG. 4D). […]
Immunoassays: KDR and VEGF content in cell lysates, tissue extracts and conditioned media was determined using 2-site electrochemiluminescent immunoassays developed for use with the Meso Scale Discovery (MSD) SectorImager 2400 plate reader (Gaithersburg, Md.). […] GraphPad Prism software version 5.0 was used for all statistical analyses: protein content values determined by 2-site immunoassay were interpolated from standard curves by nonlinear regression analysis (4 parameter logistic equation); saturation and competitive binding curves were fit after determination of specific binding and assuming a one site binding model.

Assay [8] deals with T2, KDR. Nature of the assay: Antagonism of VEGF165 WT-stimulated KDR autophosphorylation in 293/KDR cells. The format is cell-based. The conditions noted are these: VEGF165 10 ng/ml, serum-deprived 293/KDR cells; mock-immunodepleted conditioned media containing 2.5-fold molar excess VEGF 3S protein; FIG. 5B. On the procedure: FIG. 5B. […] The x-axis indicates the concentration of VEGF165 3S protein (ng/ml) in the conditioned media prior to immunodepletion.
as §2, with “Cleared extracts were applied to assay plates and processing per the manufacturer's instructions.” left out
Since the conditioned media could contain other inhibitors of KDR activation, VEGF165 3S was selectively removed from the media by immunodepletion with anti-VEGF antibody. A mock-immunodepletion was performed in parallel using a non-specific antibody and the VEGF165 3S content of the anti-VEGF and mock-immunodepleted media was measured (FIG. 5A). […]

T2 sequence (P35968 20-1356): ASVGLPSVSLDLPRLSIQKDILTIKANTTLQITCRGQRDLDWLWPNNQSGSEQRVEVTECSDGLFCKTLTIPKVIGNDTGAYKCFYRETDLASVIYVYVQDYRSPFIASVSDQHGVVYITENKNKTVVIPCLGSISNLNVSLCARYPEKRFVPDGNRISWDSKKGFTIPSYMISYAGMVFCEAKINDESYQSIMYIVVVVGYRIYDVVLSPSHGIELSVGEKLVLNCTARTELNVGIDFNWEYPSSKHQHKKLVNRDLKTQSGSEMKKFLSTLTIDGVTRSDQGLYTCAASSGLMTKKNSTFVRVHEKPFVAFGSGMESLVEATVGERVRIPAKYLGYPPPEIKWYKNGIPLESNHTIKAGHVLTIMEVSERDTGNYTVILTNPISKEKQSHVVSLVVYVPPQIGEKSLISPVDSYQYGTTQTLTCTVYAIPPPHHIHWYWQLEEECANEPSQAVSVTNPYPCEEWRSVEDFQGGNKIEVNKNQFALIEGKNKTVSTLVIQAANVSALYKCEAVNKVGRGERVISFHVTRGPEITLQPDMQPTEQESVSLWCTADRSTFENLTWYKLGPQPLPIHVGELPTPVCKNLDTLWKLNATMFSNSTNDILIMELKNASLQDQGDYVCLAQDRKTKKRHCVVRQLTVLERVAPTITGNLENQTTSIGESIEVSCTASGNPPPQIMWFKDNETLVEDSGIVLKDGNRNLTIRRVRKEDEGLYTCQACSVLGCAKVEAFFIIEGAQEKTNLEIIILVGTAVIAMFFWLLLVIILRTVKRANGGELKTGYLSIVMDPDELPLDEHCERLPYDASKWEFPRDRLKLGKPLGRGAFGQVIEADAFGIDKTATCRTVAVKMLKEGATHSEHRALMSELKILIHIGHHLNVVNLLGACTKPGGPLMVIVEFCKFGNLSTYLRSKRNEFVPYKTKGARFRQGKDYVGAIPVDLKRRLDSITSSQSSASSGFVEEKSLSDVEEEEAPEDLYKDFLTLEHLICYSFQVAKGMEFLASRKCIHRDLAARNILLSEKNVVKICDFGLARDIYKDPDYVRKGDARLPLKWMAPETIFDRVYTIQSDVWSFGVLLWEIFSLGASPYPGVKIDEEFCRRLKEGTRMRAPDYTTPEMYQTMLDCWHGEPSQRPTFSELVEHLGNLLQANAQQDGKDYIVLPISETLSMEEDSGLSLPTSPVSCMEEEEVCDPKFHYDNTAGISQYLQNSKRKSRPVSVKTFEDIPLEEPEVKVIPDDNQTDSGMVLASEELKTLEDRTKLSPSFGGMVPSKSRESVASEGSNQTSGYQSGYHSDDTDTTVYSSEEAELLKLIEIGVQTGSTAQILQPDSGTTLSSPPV

Take “VEGF165 WT: native mature human vascular endothelial growth factor A isoform of 165 amino acids”: the results for the “soft agar colony formation by transfectants” value with 293/KDR cells [1] and in the assay on 293/KDR cells [1] (listed as WT VEGF165) were “grew robustly” and “robust anchorage independent growth”, respectively. For the same molecule, in [2], the “heparin-promoted clustering (oligomerization)” value was “promoted clustering”. Moreover, the “tumor formation by implanted transfectants” value with 293/KDR cells [3] is reported as “formed tumors fastest”. Also, the “cell proliferation rate in culture” value in the assay on 293/KDR cells [4] is on record as “grew significantly faster”.

B1: VEGF165 3S: human VEGF165 with opposite charge substitutions R123E/R124E/R159E in the mature protein (protein, listed as Homo sapiens)
chain: APMAEGGGQNHHEVVKFMDVYQRSYCHPIETLVDIFQEYPDEIEYIFKPSCVPLMRCGGCCNDEGLECVPTEESNITMQIMRIKPHQGQHIGEMSFLQHNKCECRPKKDRARQENPCGPCSEEEKHLFVQDPQTCKCSCKNTDSRCKARQLELNERTCECDKPRR
As to B1, the “binding to NRP1 in vitro” value with NRP1 is “bound similarly”. Moreover, the “antagonism of Akt activation by VEGF-A” value in assay [5] (VEGF-A at 100 pM) is reported as “antagonism”. In addition, in assay [5] (VEGF-D at 1000 pM), the “block of Akt activation induced by VEGF-D” value was “did not block”. For the same molecule, the “inhibition of soft agar colony formation of 293/KDR cells stably transfected with VEGF165 WT” value is “significant, dose-dependent inhibition” in the assay on 293/KDR cells [1]; “substantial and dose-dependent inhibition” with 293/KDR cells [1] (listed as 3S VEGF). In the assay with 293/KDR cells [1], the “soft agar colony formation by transfectants” value is recorded as “grew modestly, if at all”. Moreover, the figures for the “inhibition of PlGF-induced Akt activation (phospho-Akt/total Akt)” value in assay [6] and in assay [6] (listed as VEGF 3s) were “potency similar to pazopanib” and “blocked”, respectively. The “inhibition of VEGF-A-induced Akt activation (phospho-Akt/total Akt)” value in assay [6] is “blocked”. Besides, in the assay with KDR [7], the “basal KDR phosphorylation level compared with empty vector transfectants” value is recorded as “indistinguishable”. For the same molecule, the “tumor formation by implanted transfectants” value with 293/KDR cells [3] (listed as 3S VEGF) was “tumors grew most slowly”; in the assay with 293/KDR cells [3] (listed as VEGF 3S), “did not form tumors prior to study termination”. Moreover, in the assay with KDR [8], the “inhibition of KDR autophosphorylation stimulated by purified VEGF165 protein” value was more than 80%.

These data come from patent US11434268B2, “Vascular endothelial growth factor antagonists” (The United States of America, as represented by the …, priority 2012, dated 2022).
